Source: the supplement of paper PMC7125110
± gives the standard error. Variants at the floor of the assay were thinned out.

B1: glmS ribozyme (parent)
chain: AUAAAAGCGCCAGAACUACAGAAAUGUAGUUGACGAGGAGGAGGUUUAUCGAAUUUUCGGCGGAUGCCUCCAAA

How the values were obtained:
Conditions in all cases: with glucosamine-6-phosphate
[1] = variants of: B1; test: self-cleavage kobs at 40 uM GlcN6P; higher = faster cleavage; RNA array
In short: (§1)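 Ribozyme variants carrying barcodes were transcribed in situ on sequenced MiSeq chips by E. coli RNA polymerase and tracked at 37 °C with a hybridised Cy3 probe. They were exposed to 40 μM to 10 mM glucosamine-6-phosphate in HEPES/KCl/Mg(OAc)2 buffer. kobs came from exponential decay fits of normalised per-tile medians, and kcat and KM from weighted Michaelis–Menten fits.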

[2] = variants of: B1; test: self-cleavage kobs at 160 uM GlcN6P; higher = faster cleavage; RNA array
In short: as §1

[3] = variants of: B1; test: self-cleavage kobs at 640 uM GlcN6P; higher = faster cleavage; RNA array
In short: as §1

[4] = variants of: B1; test: self-cleavage kobs at 2500 uM GlcN6P; higher = faster cleavage; RNA array
In short: as §1

[5] = variants of: B1; test: self-cleavage kobs at 10000 uM GlcN6P; higher = faster cleavage; RNA array
In short: as §1

Row | Variant | self-cleavage kobs at 40 uM GlcN6P [1] [s⁻¹] | self-cleavage kobs at 160 uM GlcN6P [2] [s⁻¹] | self-cleavage kobs at 640 uM GlcN6P [3] [s⁻¹] | self-cleavage kobs at 2500 uM GlcN6P [4] [s⁻¹] | self-cleavage kobs at 10000 uM GlcN6P [5] [s⁻¹]
1 | G44A G51A U65G C67G | < 1e-05 | < 1e-05 | < 1e-05 | < 1e-05 | < 1e-05
2 | G41U G59U | < 1e-05 | < 1e-05 | < 1e-05 |  | 
3 | G44U C50G | < 1e-05 |  |  |  | < 1e-05
4 | U46G U56A | 5.1e-05 ± 7.3e-06 |  | 0.000601 ± 0.00017 |  | 0.00224 ± 0.00042
5 | G41U G63U | < 1e-05 | < 1e-05 | < 1e-05 | < 1e-05 | < 1e-05
6 | G44A A52G | < 1e-05 | < 1e-05 |  |  | 
7 | U46G U57A | < 1e-05 |  |  |  | 5.59e-05 ± 7.8e-06
8 | G43A C70G | < 1e-05 | < 1e-05 | < 1e-05 | < 1e-05 | < 1e-05
9 | U47C C61G C71U | < 1e-05 |  |  |  | < 1e-05
10 | U45C A53G C67G C68A | 3.17e-05 ± 1.3e-05 |  |  |  | 8.22e-05 ± 1.3e-05
11 | G44C C68G | < 1e-05 | < 1e-05 | < 1e-05 | < 1e-05 | < 1e-05
12 | U47G C58A G59A C70A | 4.75e-05 ± 1.8e-05 |  |  |  | 
13 | U46G U54C C67U | 9.53e-05 ± 1.8e-05 |  |  |  | 0.00207 ± 0.00047
14 | G43C A52U | < 1e-05 | < 1e-05 | < 1e-05 | < 1e-05 | < 1e-05
15 | G44C G51U | < 1e-05 |  |  | < 1e-05 | < 1e-05
16 | U47A G51U | < 1e-05 | < 1e-05 |  |  | < 1e-05
17 | U47A G51C | < 1e-05 | < 1e-05 |  | < 1e-05 | < 1e-05
18 | G44A G62A | < 1e-05 | < 1e-05 | < 1e-05 | < 1e-05 | < 1e-05
19 | A48C C50A | < 1e-05 | < 1e-05 | < 1e-05 |  | < 1e-05
20 | U47G A52G U69C | 6.7e-05 ± 2.4e-05 |  |  |  | 9.36e-05 ± 1.5e-05
21 | A42G A48U G62U C71U | < 1e-05 |  | < 1e-05 | < 1e-05 | < 1e-05
22 | U45G G63U A64C | < 1e-05 |  | < 1e-05 |  | 

Row | Variant | self-cleavage kobs at 40 uM GlcN6P [1] [s⁻¹] | self-cleavage kobs at 160 uM GlcN6P [2] [s⁻¹] | self-cleavage kobs at 640 uM GlcN6P [3] [s⁻¹] | self-cleavage kobs at 2500 uM GlcN6P [4] [s⁻¹] | self-cleavage kobs at 10000 uM GlcN6P [5] [s⁻¹]
23 | U46C G60A | < 1e-05 | < 1e-05 | < 1e-05 |  | 
24 | A42C G51A | < 1e-05 |  |  | < 1e-05 | < 1e-05
25 | A42C C61U C71A | < 1e-05 |  |  |  | 
26 | U47A C58U | < 1e-05 |  |  |  | 6e-05 ± 2.1e-05
27 | G43U C50U U55G | < 1e-05 |  | < 1e-05 | < 1e-05 | 
28 | A42G U55G | 0.00175 ± 0.00035 |  |  |  | 0.0243 ± 0.0042
29 | U47A A52C | < 1e-05 |  |  |  | 
30 | U46C A64U | < 1e-05 |  |  |  | 4.69e-05 ± 1.5e-05
31 | U46C A64G | 0.000191 ± 2.5e-05 |  |  |  | 0.00537 ± 0.0008
32 | G44U A53C C58U C71U | < 1e-05 | < 1e-05 | < 1e-05 | < 1e-05 | < 1e-05
33 | U46C G63U C70A | < 1e-05 |  |  |  | 
34 | G41U G60C | < 1e-05 | < 1e-05 | < 1e-05 | < 1e-05 | < 1e-05
35 | U46A C58U | < 1e-05 | < 1e-05 | < 1e-05 |  | 
36 | G44A G51A C67U | < 1e-05 |  |  |  | 
37 | A42G U47A | 0.000848 ± 0.00018 | 0.00279 ± 0.0011 | 0.00967 ± 0.0013 | 0.0269 ± 0.0085 | 0.00752 ± 0.0028
38 | G44U C61G | < 1e-05 | < 1e-05 | < 1e-05 | < 1e-05 | < 1e-05
39 | U45G U46G C61A | < 1e-05 |  |  |  | < 1e-05
40 | A42G G51A A52U | < 1e-05 |  |  | < 1e-05 | 
41 | U45G G62A | < 1e-05 |  | < 1e-05 | < 1e-05 | < 1e-05
42 | G41U G62A G63U | < 1e-05 |  |  |  | < 1e-05
43 | A42C A53G | < 1e-05 | < 1e-05 |  |  | 
44 | A42G G63C | < 1e-05 | < 1e-05 | < 1e-05 | < 1e-05 | < 1e-05

Row | Variant | self-cleavage kobs at 40 uM GlcN6P [1] [s⁻¹] | self-cleavage kobs at 160 uM GlcN6P [2] [s⁻¹] | self-cleavage kobs at 640 uM GlcN6P [3] [s⁻¹] | self-cleavage kobs at 2500 uM GlcN6P [4] [s⁻¹] | self-cleavage kobs at 10000 uM GlcN6P [5] [s⁻¹]
45 | A42G G60A U65G | < 1e-05 |  |  | < 1e-05 | 
46 | U47G U69A | 5.4e-05 ± 1.7e-05 | 7.68e-05 ± 1.4e-05 | 7.46e-05 ± 1.4e-05 | 0.000193 ± 3.4e-05 | 8.6e-05 ± 1.4e-05
47 | A42U U57C | < 1e-05 | < 1e-05 | < 1e-05 |  | 
48 | U47G A48U A52C | < 1e-05 |  |  |  | < 1e-05
49 | G43A U57A | < 1e-05 |  |  | < 1e-05 | < 1e-05
50 | A42C C61G | < 1e-05 | < 1e-05 | < 1e-05 | < 1e-05 | 
51 | A42C C61A | < 1e-05 | < 1e-05 |  | < 1e-05 | < 1e-05
52 | G43C U56A C61G | < 1e-05 |  |  |  | < 1e-05
53 | G43U A64C | < 1e-05 | < 1e-05 | < 1e-05 |  | < 1e-05
54 | U47A A53G U54G | 0.000659 ± 0.00016 |  |  |  | 0.0222 ± 0.0081
55 | U45A G51A | < 1e-05 | < 1e-05 |  |  | 
56 | U47G G62A | < 1e-05 |  | < 1e-05 |  | 
57 | G44C C67A | 0.000178 ± 2.3e-05 | 0.00032 ± 9e-05 | 0.00196 ± 0.00037 | 0.00486 ± 0.0014 | 0.00668 ± 0.0019
58 | G43U C68A | 0.00235 ± 0.00036 | 0.00333 ± 0.00054 | 0.0194 ± 0.0032 | 0.0175 ± 0.005 | 0.0761 ± 0.024
59 | A42U G63U | < 1e-05 | < 1e-05 |  | < 1e-05 | < 1e-05
60 | G43A U69G | < 1e-05 |  | < 1e-05 |  | < 1e-05
61 | U45A A53G U55G | 0.00113 ± 0.00021 |  |  |  | 0.0551 ± 0.018
62 | G41U U45A | 8.05e-05 ± 2.1e-05 |  |  |  | 0.000309 ± 5.5e-05
63 | G44C U49G | < 1e-05 |  |  | < 1e-05 | < 1e-05
64 | A42G U49G C50U U55G G60A | < 1e-05 |  |  |  | < 1e-05
65 | G44C U54A U57A U65G U69G | < 1e-05 |  |  |  | < 1e-05
66 | U47A A53U | 0.000547 ± 6.1e-05 | 0.00098 ± 0.0002 | 0.00349 ± 0.00062 | 0.00324 ± 0.00072 | 0.0124 ± 0.0022

Row | Variant | self-cleavage kobs at 40 uM GlcN6P [1] [s⁻¹] | self-cleavage kobs at 160 uM GlcN6P [2] [s⁻¹] | self-cleavage kobs at 640 uM GlcN6P [3] [s⁻¹] | self-cleavage kobs at 2500 uM GlcN6P [4] [s⁻¹] | self-cleavage kobs at 10000 uM GlcN6P [5] [s⁻¹]
67 | G44A A48U | < 1e-05 | < 1e-05 | < 1e-05 |  | 
68 | U47C G66C | < 1e-05 | < 1e-05 | < 1e-05 | < 1e-05 | 
69 | G43U G59A G60C | < 1e-05 |  |  | < 1e-05 | < 1e-05
70 | A42U U49G C68G | < 1e-05 |  |  |  | 
71 | U46G A48C | < 1e-05 | < 1e-05 | < 1e-05 |  | 
72 | G43A G44A G51A C58A | < 1e-05 |  |  |  | < 1e-05
73 | G43U A48C | < 1e-05 | < 1e-05 | < 1e-05 | < 1e-05 | < 1e-05
74 | A42G C50U G63U C71G | < 1e-05 |  |  |  | < 1e-05
75 | G44U G51U C67G | < 1e-05 |  |  | < 1e-05 | < 1e-05
76 | U47C G63C | < 1e-05 |  | < 1e-05 | < 1e-05 | < 1e-05
77 | A42C C61A G66U | < 1e-05 |  |  | < 1e-05 | 
78 | U46A U49C | < 1e-05 | < 1e-05 | < 1e-05 | < 1e-05 | < 1e-05
79 | G44C C70G | < 1e-05 | < 1e-05 | < 1e-05 | < 1e-05 | < 1e-05
80 | U46A G59U | < 1e-05 | < 1e-05 | < 1e-05 |  | < 1e-05
81 | A42U G51U | < 1e-05 | < 1e-05 | < 1e-05 |  | < 1e-05
82 | A42U C71G | < 1e-05 | < 1e-05 |  |  | 3.51e-05 ± 1e-05
83 | U47A C50G C68A | 0.000209 ± 7.9e-05 |  |  |  | 0.000323 ± 6.5e-05
84 | G43C U57A | < 1e-05 |  | < 1e-05 |  | < 1e-05
85 | G44U G59U U65G | < 1e-05 |  |  | < 1e-05 | 
86 | G44A C58A C70U | < 1e-05 | < 1e-05 | < 1e-05 |  | 
87 | G43U G44A A48G C58A U69A C71G | < 1e-05 | < 1e-05 |  | < 1e-05 | < 1e-05
